Data as given in patent publication US9988424 (DUKE UNIVERSITY, dated 2018).
Where two headings read alike, the source gives them in different places.

How the values were obtained:
B. 684-6 gp140C [1] = test: ELISA, OD405
A.9004SS V1V2 Tags [2] = target: T1, A.9004SS V1V2 Tags; test: ELISA, OD405
T1 Env construct: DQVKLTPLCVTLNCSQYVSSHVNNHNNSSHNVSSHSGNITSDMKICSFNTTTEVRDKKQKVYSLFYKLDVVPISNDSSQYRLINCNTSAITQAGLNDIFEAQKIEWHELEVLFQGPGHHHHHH

B.con gp140CF [3] = target: T2, B.con gp140CF; test: ELISA, OD405
T2 construct: also called B.con.env03 gp140CF

B. 681-7 gp140C [4] = test: ELISA, OD405
Con 6 gp120 [5] = test: ELISA, OD405
B.040 gp140C [6] = test: ELISA, OD405
B.62357 140C [7] = target: T3, B.62357 140C; test: ELISA, OD405
T3 construct: also called B.62357 gp140C

B.Case A2 V1/V2 Tags [8] = target: T4, B.Case A2 V1/V2 Tags; test: ELISA, OD405
T4 Env construct: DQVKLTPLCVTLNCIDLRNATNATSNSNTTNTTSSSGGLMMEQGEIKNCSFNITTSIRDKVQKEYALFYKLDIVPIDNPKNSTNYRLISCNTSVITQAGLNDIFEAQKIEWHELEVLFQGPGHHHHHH

G.con gp140CF [9] = target: T5, G.con gp140CF; test: ELISA, OD405
T5 construct: also called G.con.env03 gp140CF

B.63521 gp140C [10] = test: ELISA, OD405
B.63521_V1V2 Tags [11] = target: T6, B.63521_V1V2 Tags; test: ELISA, OD405
T6 Env construct: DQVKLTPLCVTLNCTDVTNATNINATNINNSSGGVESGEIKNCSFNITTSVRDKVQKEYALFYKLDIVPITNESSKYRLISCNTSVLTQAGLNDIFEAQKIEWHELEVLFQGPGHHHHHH

AE.con gp140CF [12] = target: T7, AE.con gp140CF; test: ELISA, OD405
T7 construct: also called AE.con.env03 gp140CF

D.9009SA V1V2 Tags [13] = target: T8, D.9009SA V1V2 Tags; test: ELISA, OD405
T8 Env construct: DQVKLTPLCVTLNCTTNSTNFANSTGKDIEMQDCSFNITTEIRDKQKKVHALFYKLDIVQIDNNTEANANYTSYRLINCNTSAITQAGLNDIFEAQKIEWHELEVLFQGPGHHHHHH

B. 684-6 gp140C [14] = test: ELISA, OD405; remark: listed apart in the source
A.9004SS V1V2 Tags [15] = target: T1, A.9004SS V1V2 Tags; test: ELISA, OD405
B.con gp140CF [16] = target: T2, B.con gp140CF; test: ELISA, OD405; remark: listed apart in the source
B. 681-7 gp140C [17] = test: ELISA, OD405; remark: listed apart in the source
Con 6 gp120 [18] = test: ELISA, OD405; remark: listed apart in the source
B.62357 140C [19] = target: T3, B.62357 140C; test: ELISA, OD405; remark: listed apart in the source
B.Case A2 V1/V2 Tags [20] = target: T4, B.Case A2 V1/V2 Tags; test: ELISA, OD405
G.con gp140CF [21] = target: T5, G.con gp140CF; test: ELISA, OD405; remark: listed apart in the source
B.63521 gp140C [22] = test: ELISA, OD405; remark: listed apart in the source
B.63521_V1V2 Tags [23] = target: T6, B.63521_V1V2 Tags; test: ELISA, OD405
AE.con gp140CF [24] = target: T7, AE.con gp140CF; test: ELISA, OD405; remark: listed apart in the source
D.9009SA V1V2 Tags [25] = target: T8, D.9009SA V1V2 Tags; test: ELISA, OD405
A.9004SS V1V2 Tags [26] = target: T1, A.9004SS V1V2 Tags; test: ELISA, OD405
B.con gp140CF [27] = target: T2, B.con gp140CF; test: ELISA, OD405; remark: listed apart in the source
B. 681-7 gp140C [28] = test: ELISA, OD405; remark: listed apart in the source
Con 6 gp120 [29] = test: ELISA, OD405; remark: listed apart in the source
B.040 gp140C [30] = test: ELISA, OD405; remark: listed apart in the source
B.62357 140C [31] = target: T3, B.62357 140C; test: ELISA, OD405; remark: listed apart in the source
B.Case A2 V1/V2 Tags [32] = target: T4, B.Case A2 V1/V2 Tags; test: ELISA, OD405
G.con gp140CF [33] = target: T5, G.con gp140CF; test: ELISA, OD405; remark: listed apart in the source
B.63521 gp140C [34] = test: ELISA, OD405; remark: listed apart in the source
B.HXB/BAL gp140CFI = target: T9, B.HXB/BAL gp140CFI (HIV-1, UniProt P04578 33-680); test: ELISA, OD405
T9 construct: also called B.HxB/Ba gp140 CFI

B.63521_V1V2 Tags [35] = target: T6, B.63521_V1V2 Tags; test: ELISA, OD405
AE.con gp140CF [36] = target: T7, AE.con gp140CF; test: ELISA, OD405; remark: listed apart in the source
D.9009SA V1V2 Tags [37] = target: T8, D.9009SA V1V2 Tags; test: ELISA, OD405
J08 A.92RW020V1V2 = J08 A.92RW020V1V2 (HIV-1); test: SPR (BIAcore), mAb captured on anti-Fc surface, V1V2 protein injected as analyte, Synagis surface subtracted, global 1:1 Langmuir fit

B1: PG9 reverted unmutated ancestor antibody (antibody, V domains shown)
VH: QVQLVESGGGVVQPGRSLRLSCAASGFTFSSYGMHWVRQAPGKGLEWVAVISYDGSNKYYADSVKGRFTISRDNSKNTLYLQMNSLRAEDTAVYYCAREAGGPDYRNGYNYYDFWSGYYNYYYMDVWGKGTTVTVSS
VL: QSALTQPASVSGSPGQSITISCTGTSSDVGSYNLVSWYQQHPGKAPKLMIYEVSKRPSGVSNRFSGSKSGNTASLTISGLQAEDEADYYCCSLTSTRRWVFGGGTKLTVL
notes: also called PG9 RUA; PG9_RUA
B1: no binding (tested: 10 ug/ml) (B. 684-6 gp140C [1]); no binding (tested: 10 ug/ml) (A.9004SS V1V2 Tags [2]); no binding (tested: 10 ug/ml) (B.con gp140CF [3]). B1: no binding (tested: 10 ug/ml) (B. 681-7 gp140C [4]); no binding (tested: 10 ug/ml) (Con 6 gp120 [5]); no binding (tested: 10 ug/ml) (B.040 gp140C [6]). B1: no binding (tested: 10 ug/ml) (B.62357 140C [7]); no binding (tested: 10 ug/ml) (B.Case A2 V1/V2 Tags [8]); no binding (tested: 10 ug/ml) (G.con gp140CF [9]). B1: no binding (tested: 10 ug/ml) (B.63521 gp140C [10]); no binding (tested: 10 ug/ml) (B.63521_V1V2 Tags [11]); no binding (tested: 10 ug/ml) (AE.con gp140CF [12]). B1: no binding (tested: 10 ug/ml) (D.9009SA V1V2 Tags [13]).

B2: PG16 reverted unmutated ancestor antibody (antibody, V domains shown)
VH: QVQLVESGGGVVQPGRSLRLSCAASGFTFSSYGMHWVRQAPGKGLEWVAVISYDGSNKYYADSVKGRFTISRDNSKNTLYLQMNSLRAEDTAVYYCAREAGGPIWHDDVKYYDFNDGYYYYYYMDVWGKGTTVTVSS
VL: QSALTQPASVSGSPGQSITISCTGTSSDVGSYNLVSWYQQHPGKAPKLMIYEVSKRPSGVSNRFSGSKSGNTASLTISGLQAEDEADYYCCSLTDRSHRIFGGGTKLTVL
notes: also called PG16 RUA; PG16_RUA
B2: no binding (tested: 10 ug/ml) (B. 684-6 gp140C [14]); no binding (tested: 10 ug/ml) (A.9004SS V1V2 Tags [15]); no binding (tested: 10 ug/ml) (B.con gp140CF [16]). B2: no binding (tested: 10 ug/ml) (B. 681-7 gp140C [17]); no binding (tested: 10 ug/ml) (Con 6 gp120 [18]); no binding (tested: 10 ug/ml) (B.62357 140C [19]). B2: no binding (tested: 10 ug/ml) (B.Case A2 V1/V2 Tags [20]); no binding (tested: 10 ug/ml) (G.con gp140CF [21]); no binding (tested: 10 ug/ml) (B.63521 gp140C [22]). B2: no binding (tested: 10 ug/ml) (B.63521_V1V2 Tags [23]); no binding (tested: 10 ug/ml) (AE.con gp140CF [24]); no binding (tested: 10 ug/ml) (D.9009SA V1V2 Tags [25]).

B3: CH59 reverted unmutated ancestor antibody (antibody, V domains shown)
VH: EVQLVESGGGLVQPGRSLRLSCAASGFTFDDYAMHWVRQAPGKGLEWVSGISWNSGSIGYADSVKGRFTISRDNAKNSLYLQMNSLRAEDTALYYCAKDSPRGELPFDYWGQGTLVTVSS
VL: SYELTQPPSVSVSPGQTARITCSGDALPKKYAYWYQQKSGQAPVLVIYEDSKRPSGIPERFSGSSSGTMATLTISGAQVEDEADYYCYSTDSSGNHRVFGGGTKLTVL
notes: also called CH59 RUA; CH59_RUA
B3: no binding (tested: 10 ug/ml) (A.9004SS V1V2 Tags [26]); no binding (tested: 10 ug/ml) (B.con gp140CF [27]); no binding (tested: 10 ug/ml) (B. 681-7 gp140C [28]). B3: no binding (tested: 10 ug/ml) (Con 6 gp120 [29]); no binding (tested: 10 ug/ml) (B.040 gp140C [30]); no binding (tested: 10 ug/ml) (B.62357 140C [31]). B3: no binding (tested: 10 ug/ml) (B.Case A2 V1/V2 Tags [32]); no binding (tested: 10 ug/ml) (G.con gp140CF [33]); no binding (tested: 10 ug/ml) (B.63521 gp140C [34]). B3: no binding (tested: 10 ug/ml) (B.HXB/BAL gp140CFI); no binding (tested: 10 ug/ml) (B.63521_V1V2 Tags [35]); no binding (tested: 10 ug/ml) (AE.con gp140CF [36]). B3: no binding (tested: 10 ug/ml) (D.9009SA V1V2 Tags [37]).

B4: 697D (antibody, V domains shown)
VH: QVQLVQSGAEVKKPGSSVKVSCKASGGNFNTYTISWVRQAPGQGLEWMGRIIPIFGIVNPAQKFPGRVTINVDKSTNTAYMELSSLRSEDTAVYYCATSGVGLHFGYFDYWGQGTQVTVSS
VL: QSVLTQPPSVSGAPGQRVTISCTGSSSNIGAHYDVHWYQQLPGTAPKLLIYGNSNRPSGVPDRFSGSKSGTSASLAITGLQAEDEADYYCQSYDSSLSGYVFGTGTKVTVL
notes: also called mAb 697D; V2 conformational mAb 697D
B4 gave a Kd (J08 A.92RW020V1V2) of 57.5 nM, a koff (J08 A.92RW020V1V2) of 0.008 s⁻¹ and a kon (J08 A.92RW020V1V2) of 140000 M⁻¹ s⁻¹.
